From patent US6361968, “Extension of a protein-protein interaction surface to inactive the function of a cellular protein” (The United States of America as represented by the …)

T1: VBP-C/EBP chimera (VBP basic region, C/EBP leucine zipper) (Gallus gallus / Rattus norvegicus?)
T1 chain: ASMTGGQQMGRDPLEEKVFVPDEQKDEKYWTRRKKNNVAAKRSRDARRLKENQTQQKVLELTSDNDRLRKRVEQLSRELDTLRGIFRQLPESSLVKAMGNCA

B1: C/EBP consensus site in CAT reporter promoter (dsDNA)
DNA 1: ATTGCGCAAT
DNA 2: ATTGCGCAAT
B2: 28 bp C/EBP site probe (dsDNA)
DNA 1: GTCAGTCAGATTGCGCAATATCGGTCAG
DNA 2: CTGACCGATATTGCGCAATCTGACTGAC

Columns and labels:
C/EBPalpha = C/EBPalpha (UniProt P05554 P05554:1-358); assay: cell_activity; CAT transactivation in HepG2; completely inhibited by 3heptad-F; settings: tags: N-terminal FLAG; chain copies: 2 (inferred)
Source text: Human hepatoma cells (HepG2) were transiently transfected with three plasmids, a chloramphenicol acetyl transferase (CAT) expression plasmid driven by a single C/EBP cis element, the C/EBP transactivator, and different DNs. The histogram presents the extent of transactivation observed in the presence of different combinations of transactivator and dominant-negatives. In the absence of any DN, expressed C/EBP transactivated a single C/EBP site approximately 10 fold. […] This protein was able to transactivate a C/EBP containing promoter and was not inhibited by 3heptad-F.
In these experiments, 10 μg of reporter plasmid, 0.3 μg of transactivator, and 5 μg of DN were added to each transient transfection. […] Sheared salmon sperm DNA was added to bring the DNA concentrations to 20 μg. Calcium phosphate transfections were performed following the manufacturer's instructions (Gibco).

[1] = target: T1, VBP-C/EBP chimera (VBP basic region, …); assay: competition; calculated from displacement by 0-3heptad-F dominant negatives, Trp fluorescence, 25 C, 150 mM KCl, 12.5 mM phosphate pH 7.4; settings: chain copies: 2 (stated)
Description: FIG. 14A: 3heptad-F inhibits C/EBP DNA binding. […] Protein was diluted four-fold in the successive lanes. […] FIG. 14B: Displacement of VBP-C/EBP from DNA by five dominant negatives (DNs) assayed by fluorescence. Fluorescence of a single tryptophan located in the basic region of VBP-C/EBP increased upon DNA binding (minutes 5–10). The addition of 1.1 molar equivalents of the F zipper or of the four different acidic extension caused a decrease in fluorescence. After 20 minutes, 10 more molar equivalents were added, causing an additional displacement of VBP-C/EBP from the DNA. 4heptad-F, shown in bold, causes the most dramatic displacement of VBP:C/EBP. […] This is not observed for the other four mixtures which return to the VBP-C/EBP-only baseline.

Binder	activity (C/EBPalpha)	Kd [1]
B1	~10 fold	–
B2	–	0.1 nM
